Experimental data taken from the supplement of paper PMC9112550, “Optimization of the antimicrobial peptide Bac7 by deep mutational scanning” (BMC Biology, 2022).

Tested on: Escherichia coli TOP10
Experiment: shrunken log2 fold change of peptide-encoding DNA abundance (4.5 h post-induction vs induction); higher = less antimicrobial activity (less host growth inhibition)
Details: time post-induction: 4.5 h; library: site-saturation at positions 5, 18, 19, 20
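Note: peptides expressed intracellularly from a pBAD plasmid library in pooled LB shake-flask culture, induced with 0.3% L-arabinose, DNA abundance read by NGS, three biological replicates, DESeq2 with apeglm shrinkage.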

RRIRHRPPRLPRPRPRPPYQPRP
shrunken log2 fold change: -0.028

RRIRHRPPRLPRPRPRPYSGPRP
shrunken log2 fold change: -0.151

RRIRCRPPRLPRPRPRPDVLPRP
shrunken log2 fold change: -0.489

RRIRSRPPRLPRPRPRPATTPRP
shrunken log2 fold change: 0.584

RRIRQRPPRLPRPRPRPLYTPRP
shrunken log2 fold change: -0.671

RRIRQRPPRLPRPRPRPRIGPRP
shrunken log2 fold change: 0.341

RRIRPRPPRLPRPRPRPLGLPRP
shrunken log2 fold change: -0.124

RRIRQRPPRLPRPRPRPNWCPRP
shrunken log2 fold change: -0.0237

RRIRLRPPRLPRPRPRPKTWPRP
shrunken log2 fold change: 0.108

RRIRVRPPRLPRPRPRPNDIPRP
shrunken log2 fold change: -0.235

RRIRGRPPRLPRPRPRPRWNPRP
shrunken log2 fold change: 0.423

RRIRWRPPRLPRPRPRPRMAPRP
shrunken log2 fold change: 0.614

RRIRTRPPRLPRPRPRPCQCPRP
shrunken log2 fold change: -0.195

RRIRKRPPRLPRPRPRPTWAPRP
shrunken log2 fold change: 0.0687

RRIRWRPPRLPRPRPRPEHYPRP
shrunken log2 fold change: -1.14

RRIRRRPPRLPRPRPRPHDCPRP
shrunken log2 fold change: 0.00386

RRIRRRPPRLPRPRPRPHEFPRP
shrunken log2 fold change: 0.0543

RRIRNRPPRLPRPRPRPYPMPRP
shrunken log2 fold change: 0.133

RRIRTRPPRLPRPRPRPQLKPRP
shrunken log2 fold change: 0.0828

RRIRNRPPRLPRPRPRPCECPRP
shrunken log2 fold change: 0.0219

RRIRARPPRLPRPRPRPCPWPRP
shrunken log2 fold change: -0.0222

RRIRGRPPRLPRPRPRPIKVPRP
shrunken log2 fold change: 0.356

RRIRIRPPRLPRPRPRPSMPPRP
shrunken log2 fold change: -0.339

RRIRKRPPRLPRPRPRPCQLPRP
shrunken log2 fold change: -0.0631

RRIRSRPPRLPRPRPRPAWHPRP
shrunken log2 fold change: 0.0201

RRIRHRPPRLPRPRPRPFKNPRP
shrunken log2 fold change: -0.0803

RRIRLRPPRLPRPRPRPFSMPRP
shrunken log2 fold change: -0.0455

RRIRYRPPRLPRPRPRPQCKPRP
shrunken log2 fold change: -1.34

RRIRCRPPRLPRPRPRPSNGPRP
shrunken log2 fold change: -0.113

RRIRVRPPRLPRPRPRPVVEPRP
shrunken log2 fold change: -0.112

RRIRRRPPRLPRPRPRPLPYPRP
shrunken log2 fold change: -0.0149

RRIRGRPPRLPRPRPRPGETPRP
shrunken log2 fold change: 0.515

RRIRFRPPRLPRPRPRPNTNPRP
shrunken log2 fold change: -0.622

RRIRCRPPRLPRPRPRPVMYPRP
shrunken log2 fold change: -0.199

RRIRTRPPRLPRPRPRPALCPRP
shrunken log2 fold change: -0.0776

RRIRARPPRLPRPRPRPQNYPRP
shrunken log2 fold change: -0.1

RRIRTRPPRLPRPRPRPKCYPRP
shrunken log2 fold change: -0.0601

RRIRGRPPRLPRPRPRPTNPPRP
shrunken log2 fold change: 0.367

RRIRDRPPRLPRPRPRPICNPRP
shrunken log2 fold change: 0.324

RRIRDRPPRLPRPRPRPKGSPRP
shrunken log2 fold change: -0.145

RRIRLRPPRLPRPRPRPNTSPRP
shrunken log2 fold change: -0.333

RRIRNRPPRLPRPRPRPTWQPRP
shrunken log2 fold change: 0.0252

RRIRARPPRLPRPRPRPSKEPRP
shrunken log2 fold change: 0.103

RRIRARPPRLPRPRPRPSDVPRP
shrunken log2 fold change: 0.162

RRIRVRPPRLPRPRPRPPTRPRP
shrunken log2 fold change: 0.508

RRIRWRPPRLPRPRPRPIIHPRP
shrunken log2 fold change: -0.463

RRIRVRPPRLPRPRPRPSKEPRP
shrunken log2 fold change: -0.263

RRIRSRPPRLPRPRPRPNLCPRP
shrunken log2 fold change: -0.0929

RRIRERPPRLPRPRPRPMQIPRP
shrunken log2 fold change: -0.0552

RRIRPRPPRLPRPRPRPMNMPRP
shrunken log2 fold change: -0.668

RRIRYRPPRLPRPRPRPCFYPRP
shrunken log2 fold change: -0.909

RRIRHRPPRLPRPRPRPAILPRP
shrunken log2 fold change: -0.171

RRIRSRPPRLPRPRPRPCDTPRP
shrunken log2 fold change: -0.227

RRIRVRPPRLPRPRPRPVTRPRP
shrunken log2 fold change: 0.0259

RRIRPRPPRLPRPRPRPRGHPRP
shrunken log2 fold change: 0.0129

RRIRGRPPRLPRPRPRPTREPRP
shrunken log2 fold change: 0.994

RRIRWRPPRLPRPRPRPRRRPRP
shrunken log2 fold change: 1.3

RRIRVRPPRLPRPRPRPFCQPRP
shrunken log2 fold change: -0.203

RRIRFRPPRLPRPRPRPAHEPRP
shrunken log2 fold change: 0.0902

RRIRYRPPRLPRPRPRPSNLPRP
shrunken log2 fold change: -0.729

RRIRQRPPRLPRPRPRPMRIPRP
shrunken log2 fold change: -0.0249

RRIRMRPPRLPRPRPRPLLMPRP
shrunken log2 fold change: 0.205

RRIRERPPRLPRPRPRPPDLPRP
shrunken log2 fold change: 0.16

RRIRCRPPRLPRPRPRPEEAPRP
shrunken log2 fold change: 0.642

RRIRKRPPRLPRPRPRPNSPPRP
shrunken log2 fold change: -0.027

RRIRLRPPRLPRPRPRPWAKPRP
shrunken log2 fold change: 0.173

RRIRKRPPRLPRPRPRPHRTPRP
shrunken log2 fold change: -0.19

RRIRSRPPRLPRPRPRPCTCPRP
shrunken log2 fold change: -0.177

RRIRKRPPRLPRPRPRPDDAPRP
shrunken log2 fold change: 1.47

RRIRVRPPRLPRPRPRPNVYPRP
shrunken log2 fold change: -0.787

RRIRKRPPRLPRPRPRPDQWPRP
shrunken log2 fold change: 0.376

RRIRVRPPRLPRPRPRPSARPRP
shrunken log2 fold change: 0.275

RRIRVRPPRLPRPRPRPFTFPRP
shrunken log2 fold change: -0.0282

RRIRSRPPRLPRPRPRPISHPRP
shrunken log2 fold change: -0.421

RRIRHRPPRLPRPRPRPMRGPRP
shrunken log2 fold change: 0.384

RRIRTRPPRLPRPRPRPVVAPRP
shrunken log2 fold change: 0.418

RRIRRRPPRLPRPRPRPEPWPRP
shrunken log2 fold change: 0.538

RRIRIRPPRLPRPRPRPGLAPRP
shrunken log2 fold change: 0.201

RRIRHRPPRLPRPRPRPIATPRP
shrunken log2 fold change: -0.0153

RRIRPRPPRLPRPRPRPQEHPRP
shrunken log2 fold change: -0.225

RRIRMRPPRLPRPRPRPEEEPRP
shrunken log2 fold change: 0.0412

RRIRQRPPRLPRPRPRPCGHPRP
shrunken log2 fold change: 0.0101

RRIRWRPPRLPRPRPRPSSYPRP
shrunken log2 fold change: -0.123

RRIRHRPPRLPRPRPRPYKSPRP
shrunken log2 fold change: -0.00494

RRIRCRPPRLPRPRPRPVSQPRP
shrunken log2 fold change: 0.201

RRIRDRPPRLPRPRPRPHKYPRP
shrunken log2 fold change: -0.116

RRIRSRPPRLPRPRPRPLIAPRP
shrunken log2 fold change: 0.0475

RRIRIRPPRLPRPRPRPLFLPRP
shrunken log2 fold change: -0.653

RRIRLRPPRLPRPRPRPHGLPRP
shrunken log2 fold change: 0.123

RRIRNRPPRLPRPRPRPKVNPRP
shrunken log2 fold change: 0.0323

RRIRDRPPRLPRPRPRPRPKPRP
shrunken log2 fold change: 0.548

RRIRQRPPRLPRPRPRPERPPRP
shrunken log2 fold change: 0.223

RRIRYRPPRLPRPRPRPAWDPRP
shrunken log2 fold change: -0.092

RRIRERPPRLPRPRPRPMFKPRP
shrunken log2 fold change: -0.204

RRIRWRPPRLPRPRPRPQNEPRP
shrunken log2 fold change: -0.18

RRIRKRPPRLPRPRPRPWMAPRP
shrunken log2 fold change: 0.102

RRIRERPPRLPRPRPRPVDYPRP
shrunken log2 fold change: 0.0839

RRIRSRPPRLPRPRPRPMFMPRP
shrunken log2 fold change: -0.223

RRIRYRPPRLPRPRPRPCWFPRP
shrunken log2 fold change: -0.0378

RRIRWRPPRLPRPRPRPSIKPRP
shrunken log2 fold change: -0.419

RRIRWRPPRLPRPRPRPRWPPRP
shrunken log2 fold change: 0.598

RRIRNRPPRLPRPRPRPTDLPRP
shrunken log2 fold change: -0.228

RRIRARPPRLPRPRPRPEEQPRP
shrunken log2 fold change: 1.97

RRIRSRPPRLPRPRPRPEHIPRP
shrunken log2 fold change: 0.0843

RRIRHRPPRLPRPRPRPPMLPRP
shrunken log2 fold change: 0.0935

RRIRIRPPRLPRPRPRPGWYPRP
shrunken log2 fold change: -0.221

RRIRFRPPRLPRPRPRPTHAPRP
shrunken log2 fold change: 0.207

RRIRMRPPRLPRPRPRPCWKPRP
shrunken log2 fold change: -0.0216

RRIRGRPPRLPRPRPRPQAAPRP
shrunken log2 fold change: 1.22

RRIRVRPPRLPRPRPRPDFTPRP
shrunken log2 fold change: -0.282

RRIRMRPPRLPRPRPRPYIKPRP
shrunken log2 fold change: -0.86

RRIRNRPPRLPRPRPRPEWIPRP
shrunken log2 fold change: -0.16

RRIRTRPPRLPRPRPRPWWMPRP
shrunken log2 fold change: -0.133

RRIRVRPPRLPRPRPRPRSDPRP
shrunken log2 fold change: -0.258

RRIRDRPPRLPRPRPRPPFLPRP
shrunken log2 fold change: 0.0487

RRIRERPPRLPRPRPRPMLFPRP
shrunken log2 fold change: -0.0835

RRIRFRPPRLPRPRPRPANCPRP
shrunken log2 fold change: -0.211

RRIRDRPPRLPRPRPRPNCLPRP
shrunken log2 fold change: 0.0835

RRIRFRPPRLPRPRPRPMWVPRP
shrunken log2 fold change: -0.00617

RRIRHRPPRLPRPRPRPYLCPRP
shrunken log2 fold change: -0.0059

RRIRMRPPRLPRPRPRPTWSPRP
shrunken log2 fold change: 0.66

RRIRMRPPRLPRPRPRPSKFPRP
shrunken log2 fold change: -0.0303

RRIRNRPPRLPRPRPRPPPWPRP
shrunken log2 fold change: 0.591

RRIRSRPPRLPRPRPRPGRGPRP
shrunken log2 fold change: 0.715

RRIRGRPPRLPRPRPRPTQRPRP
shrunken log2 fold change: 0.739
